Values belong to the binder of their own block, whether it stands above or below them.
Target: mouse OX40 receptor, cell-expressed (DO11.10-mOX40) (mouse) (UniProt P47741)
Assay: cell-based or functional assay

Chain of mouse OX40 receptor, cell-expressed (DO11.10-mOX40) (mouse) (P47741 20-272): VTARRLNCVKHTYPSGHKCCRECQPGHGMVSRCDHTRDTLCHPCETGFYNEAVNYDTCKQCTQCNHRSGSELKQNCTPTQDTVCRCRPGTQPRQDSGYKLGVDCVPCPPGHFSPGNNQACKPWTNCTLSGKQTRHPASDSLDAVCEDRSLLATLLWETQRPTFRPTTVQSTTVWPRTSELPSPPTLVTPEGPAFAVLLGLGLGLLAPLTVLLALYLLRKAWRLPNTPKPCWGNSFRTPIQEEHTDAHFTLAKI

- EC50 of IL-2 release, HPAC cells present, + a-hFc: 0.811 nM
- EC50 of IL-2 release, Xlink (anti-hFc): 15.6 nM
- Max response, HPAC cells present, + a-hFc: 17900 mIL-2 pg/ml
- Max response, Xlink (anti-hFc): 16200 mIL-2 pg/ml
B1: G1/OX86 (antibody, from another filing, human IgG1, V domains shown)
VH: QVQLKESGPGLVQPSQTLSLTCTVSGFSLTGYNLHWVRQPPGKGLEWMGRMRYDGDIYYNSVLKSRLSISRDTSKNQVFLKMNSLQTDDTAIYYCTRDGRGDSFDYWGQGVMVTVSS
VL: DIVMTQGALPNPVPSGESASITCRSSQSLVYKDGQTYLNWFLQRPGQSPQLLTYWMSTRASGVSDRFSGSGSGTYFTLKISRVRAEDAGVYYCQQVREYPFTFGSGTKLEIKR

- EC50 of IL-2 release, HPAC cells present, + a-hFc: 0.289 nM
- Max response, HPAC cells present, + a-hFc: 18800 mIL-2 pg/ml
- Max response, crosslinked by EphA2 on HPAC cells, no crosslinking agent: 11000 mIL-2 pg/ml
B2: FS20m-232-91AA/E2A (bispecific antibody, part only; not given: E2A Fab and upper Fc, human IgG1, part only)
heavy, part: GQPREPQVYTLPPSRDELFDPMYYYNQVSLTCLVKGFYPSDIAVEWESNGEPLWDYKTTPPVLDSDGSFFLYSKLTVWRDRWEDGNVFSCSVMHEALHNHYTQKSLSLSPGK

- EC50 of IL-2 release, Xlink (VEGF): 0.144 nM
- EC50 of IL-2 release, no added crosslinker: 29.9 nM
- Max response, Xlink (VEGF): 15100 mIL-2 pg/ml
- Max response, no added crosslinker: 16700 mIL-2 pg/ml
B3: FS20m-232-91AA/R84 (bispecific antibody, part only; not given: R84 Fab and upper Fc, human IgG1, part only)
heavy, part: B2 heavy, part

- EC50 of IL-2 release, no added crosslinker (LAG3 co-expressed on T cells): 0.175 nM
- Max response, no added crosslinker (LAG3 co-expressed on T cells): 9670 mIL-2 pg/ml
B4: FS20m-232-91AA/C9B7W (bispecific antibody, part only; not given: C9B7W Fab and upper Fc, human IgG1, part only)
heavy, part: B2 heavy, part

— US20250361312A1
